First the molecules themselves.
T1: NatA complex (Naa15-Naa10) (human, UniProt P41227 1-235; Q9BXJ9 1-866)
T1 sequence (looked up) 1: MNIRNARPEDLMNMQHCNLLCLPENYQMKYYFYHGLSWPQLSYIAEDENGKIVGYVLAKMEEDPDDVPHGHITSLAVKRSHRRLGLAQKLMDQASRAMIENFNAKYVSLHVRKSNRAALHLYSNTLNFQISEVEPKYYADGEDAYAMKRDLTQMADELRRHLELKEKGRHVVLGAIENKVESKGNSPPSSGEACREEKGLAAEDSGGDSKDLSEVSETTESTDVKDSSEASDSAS
T1 sequence (looked up) 2: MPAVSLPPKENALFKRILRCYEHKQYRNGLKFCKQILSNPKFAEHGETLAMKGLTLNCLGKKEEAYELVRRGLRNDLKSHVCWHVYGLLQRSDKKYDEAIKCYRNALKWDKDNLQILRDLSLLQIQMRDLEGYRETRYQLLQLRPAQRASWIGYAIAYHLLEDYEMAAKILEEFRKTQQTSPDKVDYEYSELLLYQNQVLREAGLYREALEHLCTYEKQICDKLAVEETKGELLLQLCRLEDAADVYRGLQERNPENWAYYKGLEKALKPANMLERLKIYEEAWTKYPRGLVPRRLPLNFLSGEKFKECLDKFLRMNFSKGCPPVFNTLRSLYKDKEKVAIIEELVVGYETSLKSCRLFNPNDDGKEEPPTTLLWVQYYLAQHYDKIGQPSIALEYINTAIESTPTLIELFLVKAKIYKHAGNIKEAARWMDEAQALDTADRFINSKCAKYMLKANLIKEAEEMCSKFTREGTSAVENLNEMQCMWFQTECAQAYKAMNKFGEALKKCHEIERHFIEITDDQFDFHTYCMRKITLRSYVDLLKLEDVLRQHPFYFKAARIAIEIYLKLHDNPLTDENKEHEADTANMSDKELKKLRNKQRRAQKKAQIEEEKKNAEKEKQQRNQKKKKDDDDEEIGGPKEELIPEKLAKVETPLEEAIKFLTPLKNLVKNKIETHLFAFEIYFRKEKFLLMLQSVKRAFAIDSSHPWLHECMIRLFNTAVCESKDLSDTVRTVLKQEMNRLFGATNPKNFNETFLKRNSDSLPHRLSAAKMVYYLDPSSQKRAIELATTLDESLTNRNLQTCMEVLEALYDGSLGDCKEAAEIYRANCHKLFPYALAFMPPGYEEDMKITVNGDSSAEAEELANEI

T2: MBP-HishNAA80 fusion protein (MBP-Naa80) (human, UniProt Q93015-2 1-308)
T2 sequence (looked up): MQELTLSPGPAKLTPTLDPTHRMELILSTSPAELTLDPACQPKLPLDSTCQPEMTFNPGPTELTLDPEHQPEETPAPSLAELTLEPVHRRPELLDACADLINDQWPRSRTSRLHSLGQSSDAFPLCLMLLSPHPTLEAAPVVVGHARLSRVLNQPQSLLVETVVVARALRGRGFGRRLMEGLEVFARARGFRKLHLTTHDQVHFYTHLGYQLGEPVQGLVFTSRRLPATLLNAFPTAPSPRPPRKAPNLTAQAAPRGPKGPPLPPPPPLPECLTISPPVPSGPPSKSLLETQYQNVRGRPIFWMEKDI

T3: Naa80 (Homo sapiens, UniProt Q93015)
T3 construct: The PCR product containing the CDS was inserted into the TOPO TA vector; made in house; host or cells: E. coli BL21 Star (DE3)
T3 sequence (Q93015 1-308 isoform Q93015-2): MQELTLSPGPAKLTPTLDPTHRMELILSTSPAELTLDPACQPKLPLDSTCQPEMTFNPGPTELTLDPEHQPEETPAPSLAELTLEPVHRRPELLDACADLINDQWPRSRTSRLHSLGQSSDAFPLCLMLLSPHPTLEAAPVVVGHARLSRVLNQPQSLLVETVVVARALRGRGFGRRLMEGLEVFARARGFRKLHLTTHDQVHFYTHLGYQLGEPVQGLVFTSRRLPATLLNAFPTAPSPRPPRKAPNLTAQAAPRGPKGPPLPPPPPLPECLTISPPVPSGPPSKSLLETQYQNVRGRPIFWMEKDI

Square brackets hold non-standard residues; d marks the D form. Ends that are not written are not given here. Nle = CCCC[C@H](N)C(=O)O; CoA = coenzyme A

The first assay has as its target T1, NatA complex (Naa15-Naa10). Kind of assay: cell-based or functional assay.
Details: not given
Turning to {CoA-Ac}-SYAE-NH2 [CoA-Ac-SYAE], the “IC50 (µM), Nt-acetylation inhibition” value was 36.2 µM. Same read-out and setting: the value for {CoA-Ac}-SSAE-NH2 [CoA-Ac-SSAE] was 4.7 µM; that for {CoA-Ac}-SSME-NH2 [CoA-Ac-SSME] was 1.28 µM. On the same count and under the same terms, with {CoA-Ac}-SASE-NH2 [CoA-Ac-SASE] the figure was 62.4 µM; with {CoA-Ac}-SAAE-NH2 [CoA-Ac-SAAE], 12.1 µM; with {CoA-Ac}-SSSE-NH2 [CoA-Ac-SSSE], 9.47 µM. The same measure, in the same setting: with {CoA-Ac}-SSMPV-NH2 [CoA-Ac-SSMPV] the figure was 2.1 µM. Take {CoA-Ac}-AASE-NH2 [CoA-Ac-AASE]: the “IC50 (µM), Nt-acetylation inhibition” value turned out to be 247 µM.

As to {CoA-Ac}-SESS-NH2 [CoA-Ac-SESS], the “IC50 (µM), Nt-acetylation inhibition” value came out at 15.4 µM. On the same count and under the same terms, the value for {CoA-Ac}-SSAA-NH2 [CoA-Ac-SSAA] was 5.3 µM; that for {CoA-Ac}-SSMP-NH2 [CoA-Ac-SSMP] was 0.82 µM; that for {CoA-Ac}-PS[Nle]P (not fully specified (C-terminus); printed as CoA-Ac-PS(Nle)P) [CoA-Ac-PS(Nle)P] was over 1000 µM.

The target in another assay is T2, MBP-HishNAA80 fusion protein (MBP-Naa80). Briefly: cell-based or functional assay.
Details: not given
With MAPLDLDRWGRPVGRRRRPVRVYP [MAPL24], the “Product formation” value worked out at 2.28 µM.

MKKSYSGRWGRPVGRRRRPVRVYP [MKKS24]: the “Product formation” value amounted to 3.37 µM. The same measure, in the same setting: with SESSSKSRWGRPVGRRRRPVRVYP [SESS24] the figure was 1.14 µM. Same read-out and setting: with MLGPEGGRWGRPVGRRRRPVRVYP [MLGP24] the figure was 2.06 µM; with DDDIAALRWGRPVGRRRRPVRVYP [DDDI24], 50.5 µM. Still for that read-out and setting: the value for MDELFPLRWGRPVGRRRRPVRVYP [MDEL24] was 119 µM; that for AVFADLDRWGRPVGRRRRPVRVYP [AVFA24] was -0.96 µM; that for MELLSPPRWGRPVGRRRRPVRVYP [MELL24] was 2.15 µM.

Take EEEIAALRWGRPVGRRRRPVRVYP [EEEI24]: the “Product formation” value worked out at 42.4 µM. Still for that read-out and setting: with MTNKSSLRWGRPVGRRRRPVRVYP [MTNK24] the figure was -4.25 µM.

The next assay concerns the target T3, Naa80. Kind of assay: Naa80 substrate screening assay (peptide acetylation by purified Naa80). The class given is biochemical. The conditions noted are these: Naa80 mediated acetylation of 24-mer peptide substrates. The text has this:
In order to investigate the in vitro activity of Naa80 further, an enzyme activity screening assay on purified Naa80 was undertaken using a broad substrate library (including amino acids, nucleosides, coenzymes, amines, saccharides, vitamins, antioxidants and peptides) modified from Kuhn et al. (Kuhn et al. (2013) “Broad-substrate screen as a tool to identify substrates for bacterial Gcn5-related N-acetyltransferases with unknown substrate specificity”. Protein Science 22(2):222-230). Among all of the potential substrates tested, only the peptides with N-terminal sequence of MDEL24 (SEQ ID NO: 45), DDDI24 (SEQ ID NO: 41) and EEEI24 (SEQ ID NO: 40) were acetylated, as shown in the following table:
The 24-mer substrate peptides differed in their 7 N-terminal amino acids while the 17 C-terminal residues (RWGRPVGRRRRPVRVYP, SEQ ID NO: 39) were kept constant: EEEI24 (EEEIAAL, SEQ ID NO: 40), DDDI24 (DDDIAAL, SEQ ID NO: 41), MDDD24 (MDDDIAA, SEQ ID NO: 42), SESS24 (SESSSKS, SEQ ID NO: 43), AVFA24 (AVFADLD, SEQ ID NO: 44), MDEL24 (MDELFPL, SEQ ID NO: 45), MELL24 (MELLSPP, SEQ ID NO: 46), MLGT24 (MLGTGPA, SEQ ID NO: 47), MTNK24 (MTNKSSL, SEQ ID NO: 48), MLGP24 (MLGPEGG, SEQ ID NO: 49), MAPL24 (MAPLDLD, SEQ ID NO: 50), MKKS24 (MKKSYSG, SEQ ID NO: 51).
Both MDEL (p65, SEQ ID NO: 8) and MDDD24 (unprocessed β-actin, SEQ ID NO: 42) represent cellular NatB substrates.
Consider “SESS24: 24-mer substrate peptide: N-terminal SESSSKS (SEQ ID NO: 43) plus constant RWGRPVGRRRRPVRVYP (SESSSKSRWGRPVGRRRRPVRVYP)”, for which the Product formation is given as 1.14 (±3.35) μM. The same measure, in the same setting: with “MTNK24: 24-mer substrate peptide: N-terminal MTNKSSL (SEQ ID NO: 48) plus constant RWGRPVGRRRRPVRVYP (MTNKSSLRWGRPVGRRRRPVRVYP)” the figure was −4.25 (±1.75) μM. On the same count and under the same terms, the value for “MKKS24: 24-mer substrate peptide: N-terminal MKKSYSG (SEQ ID NO: 51) plus constant RWGRPVGRRRRPVRVYP (MKKSYSGRWGRPVGRRRRPVRVYP)” was 3.37 (±1.71) μM; that for “MAPL24: 24-mer substrate peptide: N-terminal MAPLDLD (SEQ ID NO: 50) plus constant RWGRPVGRRRRPVRVYP (MAPLDLDRWGRPVGRRRRPVRVYP)” was 2.28 (±0.61) μM. On to “MELL24: 24-mer substrate peptide: N-terminal MELLSPP (SEQ ID NO: 46) plus constant RWGRPVGRRRRPVRVYP (MELLSPPRWGRPVGRRRRPVRVYP)”, for which the Product formation was 2.15 (±0.40) μM.

Take “AVFA24: 24-mer substrate peptide: N-terminal AVFADLD (SEQ ID NO: 44) plus constant RWGRPVGRRRRPVRVYP (AVFADLDRWGRPVGRRRRPVRVYP)”: the Product formation is listed as −0.96 (±0.84) μM. On the same count and under the same terms, the value for “DDDI24: 24-mer substrate peptide: N-terminal DDDIAAL (SEQ ID NO: 41) plus constant RWGRPVGRRRRPVRVYP (DDDIAALRWGRPVGRRRRPVRVYP)” was 50.5 (±1.0) μM; that for “EEEI24: 24-mer substrate peptide: N-terminal EEEIAAL (SEQ ID NO: 40) plus constant RWGRPVGRRRRPVRVYP (EEEIAALRWGRPVGRRRRPVRVYP)” was 42.4 (±0.95) μM. Take “MLGP24: 24-mer substrate peptide: N-terminal MLGPEGG (SEQ ID NO: 49) plus constant RWGRPVGRRRRPVRVYP (MLGPEGGRWGRPVGRRRRPVRVYP)”: the Product formation is 2.06 (±1.49) μM.

The record behind these values is patent US20200323888A1, “INHIBITORS” (VESTLANDETS INNOVASJONSSELSKAP AS, priority 2017, published 2020).
